Test results taken from paper PMC11050286.

Biological target: human calmodulin wild-type (pIRES-DsRed-HisB-cMyc-CaM WT) (human) (UniProt P0DP23)

In the case of “human SK4 R352D/R355D (from UniProt O15554 1-427) (natural protein)”, the TRAM-34 sensitive whole-cell K+ current density at +60 mV, HEK293T cells co-transfected with SK4 R352D/R355D and CaM WT, 0.1 uM Cai (not different from background) is reported as 54 pA/pF.
